Reference: the supplement of paper PMC6757056
± gives the standard deviation of the averaged measurements.

B1: library; a variant is named by its letters at N, in order (parent)
chain: GCUGUCACCGGUGUAUUACCCUAGUGGUCGACCGGUCUGAUGAGUCUNNNNNNAGACGAAACAGC

Assays:
hypoxanthine [1] = variants of: B1; experiment: FACS-Seq fitted mean relative fluorescence mCherry/BFP without ligand (log10 relative fluorescence); ligand: hypoxanthine (xanthine aptamer); higher = higher reporter protein expression; details: HEK293T, ligand present: no
In short: (§1)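 After lentiviral transduction, HEK293T library cells bearing an mCherry ribozyme-switch reporter and an EF1α-BFP marker were enriched. They were then held for 48 h with or without ligand and sorted by mCherry/BFP into 6 bins, and each bin's genomic DNA was PCR-amplified, barcoded and MiSeq-sequenced. Fluorescence is expressed as a normalized fitted mean: the normal mean of log10(mCherry/BFP) bin counts, scaled to five spiked-in control ribozymes.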

hypoxanthine [2] = variants of: B1; experiment: normalized RNA/DNA level with ligand (relative to sTRSVctl = 100) (log10 (% of sTRSVctl)); ligand: hypoxanthine (xanthine aptamer); higher = less ribozyme self-cleavage, higher mRNA level; details: ligand concentration (+) RNA-Seq: 5 mM, HEK293T, reporter: mCherry (pCS4076), ligand present: yes
Description: (§2)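 Hammerhead (sTRSV) ribozyme switch libraries with a ligand aptamer grafted on stem I and a randomized N4-6 loop II, cloned into the 3' UTR of mCherry and transiently transfected into HEK293T cells; RNA-Seq 72 h post transfection with ligand added 1 h before transfection; RNA read count / plasmid DNA read count normalized to the non-cleaving sTRSVctl (x100), log10; sequences with >100 DNA reads. FACS-Seq: lentiviral library sorted into 6 bins after 48 h ligand, log-normal fit mean of mCherry/BFP scaled to controls. Printed sequences are partial switch sequences.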

hypoxanthine [3] = variants of: B1; experiment: normalized RNA/DNA level without ligand (relative to sTRSVctl = 100) (log10 (% of sTRSVctl)); ligand: hypoxanthine (xanthine aptamer); higher = less ribozyme self-cleavage, higher mRNA level; details: HEK293T, reporter: mCherry (pCS4076), ligand present: no
Description: as §2

hypoxanthine [4] = variants of: B1; experiment: FACS-Seq fitted mean relative fluorescence mCherry/BFP with ligand (log10 relative fluorescence); ligand: hypoxanthine (xanthine aptamer); ligand concentration (+) FACS-Seq: 5 mM; higher = higher reporter protein expression; details: HEK293T, ligand present: yes
In short: as §1

| Variant | FACS-Seq fitted mean (log10) (hypoxanthine [1]) | normalized RNA/DNA level with ligand (log10) (hypoxanthine [2]) | normalized RNA/DNA level without ligand (log10) (hypoxanthine [3]) | FACS-Seq fitted mean (log10) (hypoxanthine [4]) |
| --- | --- | --- | --- | --- |
| UAAGGU | 0.356 ± 0.021 | 1.94 ± 0.042 | 1.53 ± 0.027 | 0.602 ± 0.06 |
| UAAGGA | 0.215 ± 0.031 | 1.88 ± 0.041 | 1.608 ± 0.0063 | 0.472 ± 0.057 |
| UAAGGG | 0.3343 ± 0.00083 | 1.878 ± 0.013 | 1.4441 ± 0.0011 | 0.519 ± 0.015 |
| CAAGCC | 0.17 ± 0.076 | 1.96 ± 0.011 | 1.87 ± 0.028 | 0.404 ± 0.0094 |
| CAAGCA | 0.544 ± 0.054 | 1.964 ± 0.012 | 1.7 ± 0.063 | 0.609 ± 0.094 |
| UAACUG | 0.142 ± 0.042 | 1.896 ± 0.018 | 1.64 ± 0.017 | 0.31 ± 0.084 |
| UAACUA | 0.0691 ± 0.014 | 1.921 ± 0.0071 | 1.879 ± 0.0092 | -0.0104 ± 0.0014 |
| UACCUA | 0.48 ± 0.072 | 1.93 ± 0.0042 | 1.921 ± 0.019 | 0.369 ± 0.023 |
| UACCUG | -0.0249 ± 0.053 | 1.93 ± 0.024 | 1.635 ± 0.012 | 0.0984 ± 0.069 |
| CACACU | 0.146 ± 0.034 | 1.953 ± 0.0082 | 1.87 ± 0.036 | 0.266 ± 0.0029 |
| GAAGGA | 0.247 ± 0.034 | 1.92 ± 0.021 | 1.64 ± 0.031 | 0.559 ± 0.021 |
| GAAGGG | -0.0424 ± 0.023 | 1.806 ± 0.01 | 1.324 ± 0.0061 | 0.431 ± 0.059 |
| CAAGGC | -0.0753 ± 0.017 | 1.936 ± 0.017 | 1.84 ± 0.024 | -0.0781 ± 0.056 |
| CAAGGU | 0.232 ± 0.021 | 1.883 ± 0.015 | 1.78 ± 0.029 | 0.388 ± 0.027 |
| GACCAG | 0.136 ± 0.033 | 1.865 ± 0.0019 | 1.55 ± 0.073 | 0.531 ± 0.013 |
| GACCAA | 0.126 ± 0.012 | 1.9242 ± 0.00022 | 1.81 ± 0.019 | 0.21 ± 0.049 |
| GACACC | 0.458 ± 0.072 | 1.92 ± 0.022 | 1.8641 ± 0.00014 | 0.365 ± 0.049 |
| GACACG | 0.359 ± 0.011 | 1.9 ± 0.045 | 1.51 ± 0.018 | 0.695 ± 0.12 |
| CAAUCC | 0.406 ± 0.038 | 1.97 ± 0.086 | 1.82 ± 0.026 | 0.468 ± 0.05 |
| UAACGU | 0.145 ± 0.021 | 1.914 ± 0.01 | 1.61 ± 0.038 | 0.365 ± 0.051 |
| UAACGG | 0.07847 ± 0.00013 | 1.82 ± 0.083 | 1.376 ± 0.0076 | 0.473 ± 0.081 |
| AAACUG | 0.227 ± 0.039 | 1.822 ± 0.0094 | 1.43 ± 0.051 | 0.46 ± 0.021 |
| AAACUU | 0.777 ± 0.048 | 1.92 ± 0.011 | 1.856 ± 0.0063 | 0.674 ± 0.075 |
| UAAGUG | -0.334 ± 0.04 | 1.891 ± 0.0081 | 1.653 ± 0.015 | 0.146 ± 0.027 |

| Variant | FACS-Seq fitted mean (log10) (hypoxanthine [1]) | normalized RNA/DNA level with ligand (log10) (hypoxanthine [2]) | normalized RNA/DNA level without ligand (log10) (hypoxanthine [3]) | FACS-Seq fitted mean (log10) (hypoxanthine [4]) |
| --- | --- | --- | --- | --- |
| GAAGCA | 0.802 ± 0.069 | 1.96 ± 0.03 | 1.76 ± 0.049 | 0.779 ± 0.075 |
| GAAGCG | 0.1393 ± 0.001 | 1.8561 ± 0.0014 | 1.4 ± 0.075 | 0.56 ± 0.016 |
| CACCAC | 0.232 ± 0.012 | 1.92 ± 0.056 | 1.81 ± 0.063 | 0.406 ± 0.036 |
| UACAAU | 0.702 ± 0.073 | 1.9 ± 0.039 | 1.819 ± 0.0071 | 0.7079 ± 0.0057 |
| UACAAG | 0.335 ± 0.0078 | 1.928 ± 0.011 | 1.58 ± 0.018 | 0.444 ± 0.047 |
| CAAGUC | 0.736 ± 0.067 | 1.95 ± 0.069 | 1.921 ± 0.018 | 0.635 ± 0.04 |
| GAAUUG | 0.0724 ± 0.04 | 1.81 ± 0.032 | 1.4 ± 0.076 | 0.434 ± 0.011 |
| GAAUUC | 0.407 ± 0.28 | 1.929 ± 0.0056 | 1.9 ± 0.039 | 0.388 ± 0.089 |
| GAAUUA | 0.374 ± 0.05 | 1.91 ± 0.043 | 1.804 ± 0.012 | 0.557 ± 0.089 |
| UACCAG | 0.0403 ± 0.078 | 1.87 ± 0.015 | 1.589 ± 0.0032 | 0.0509 ± 0.085 |
| UACCAA | -0.105 ± 0.11 | 1.92 ± 0.036 | 1.838 ± 0.011 | -0.235 ± 0.035 |
| UAAUCG | -0.0742 ± 0.028 | 1.93 ± 0.021 | 1.633 ± 0.014 | 0.247 ± 0.059 |
| UAAUCU | 0.5653 ± 0.0022 | 1.96 ± 0.043 | 1.87 ± 0.061 | 0.561 ± 0.067 |
| UACAUG | -0.317 ± 0.071 | 1.93 ± 0.029 | 1.69 ± 0.018 | 0.0659 ± 0.069 |
| AACCAG | 0.356 ± 0.091 | 1.82 ± 0.027 | 1.41 ± 0.049 | 0.678 ± 0.017 |
| AACCAC | 0.0153 ± 0.085 | 1.91 ± 0.036 | 1.78 ± 0.037 | 0.246 ± 0.02 |
| AACCGG | 0.0275 ± 0.00055 | 1.877 ± 0.011 | 1.43 ± 0.031 | 0.526 ± 0.015 |
| AACCGA | 0.422 ± 0.041 | 1.9477 ± 0.0019 | 1.72 ± 0.019 | 0.533 ± 0.044 |
| AACCGC | -0.101 ± 0.015 | 1.916 ± 0.014 | 1.79 ± 0.036 | 0.124 ± 0.016 |
| AACCGU | 0.798 ± 0.12 | 1.889 ± 0.0024 | 1.75 ± 0.057 | 0.637 ± 0.047 |
| CAAUAC | 0.32 ± 0.022 | 1.93 ± 0.069 | 1.767 ± 0.01 | 0.507 ± 0.0056 |
| CAAUAA | 0.566 ± 0.035 | 1.89 ± 0.04 | 1.654 ± 0.0078 | 0.578 ± 0.07 |
| CACCGA | 0.374 ± 0.048 | 1.94 ± 0.0088 | 1.8 ± 0.038 | 0.516 ± 0.011 |
| GACAUA | 0.382 ± 0.011 | 1.91 ± 0.027 | 1.79 ± 0.027 | 0.373 ± 0.037 |

| Variant | FACS-Seq fitted mean (log10) (hypoxanthine [1]) | normalized RNA/DNA level with ligand (log10) (hypoxanthine [2]) | normalized RNA/DNA level without ligand (log10) (hypoxanthine [3]) | FACS-Seq fitted mean (log10) (hypoxanthine [4]) |
| --- | --- | --- | --- | --- |
| GACAUG | 0.405 ± 0.11 | 1.81 ± 0.032 | 1.4 ± 0.0058 | 0.472 ± 0.081 |
| AAACGU | 0.362 ± 0.036 | 1.877 ± 0.0019 | 1.63 ± 0.043 | 0.519 ± 0.03 |
| CAAUGG | -0.334 ± 0.031 | 1.82 ± 0.071 | 1.42 ± 0.042 | 0.178 ± 0.12 |
| CAAUGU | 0.483 ± 0.12 | 1.91 ± 0.034 | 1.86 ± 0.062 | 0.48 ± 0.078 |
| GAAGUU | -0.155 ± 0.12 | 1.966 ± 0.0047 | 1.831 ± 0.008 | -0.587 ± 0.17 |
| GAAGUG | -0.0452 ± 0.0093 | 1.8 ± 0.024 | 1.276 ± 0.012 | 0.468 ± 0.037 |
| AAAGCU | -0.307 ± 0.014 | 1.94 ± 0.026 | 1.85 ± 0.034 | -0.41 ± 0.022 |
| AAAGCA | 0.391 ± 0.034 | 1.93 ± 0.043 | 1.77 ± 0.035 | 0.503 ± 0.023 |
| AAAGCG | 0.0919 ± 0.015 | 1.82 ± 0.026 | 1.32 ± 0.086 | 0.539 ± 0.023 |
| AAAGUG | 0.148 ± 0.035 | 1.81 ± 0.034 | 1.31 ± 0.043 | 0.47 ± 0.012 |
| AAAGUA | 0.554 ± 0.029 | 1.9 ± 0.023 | 1.73 ± 0.053 | 0.61 ± 0.032 |
| AAAGUU | 0.306 ± 0.0051 | 1.91 ± 0.026 | 1.823 ± 0.0039 | 0.548 ± 0.017 |
| GAAUCA | 0.438 ± 0.055 | 1.94 ± 0.065 | 1.809 ± 0.013 | 0.46 ± 0.066 |
| GAAUCG | 0.14 ± 0.0063 | 1.84 ± 0.02 | 1.4 ± 0.053 | 0.439 ± 0.05 |
| AACAAG | 0.124 ± 0.013 | 1.85 ± 0.051 | 1.41 ± 0.098 | 0.462 ± 0.033 |
| AACAAU | 0.434 ± 0.044 | 1.89 ± 0.023 | 1.74 ± 0.042 | 0.249 ± 0.16 |
| GACAAA | 0.0314 ± 0.035 | 1.91 ± 0.058 | 1.774 ± 0.011 | 0.0426 ± 0.012 |
| AAAUGC | -0.0368 ± 0.059 | 1.92 ± 0.029 | 1.76 ± 0.026 | 0.173 ± 0.096 |
| AAAUGG | 0.175 ± 0.024 | 1.78 ± 0.025 | 1.33 ± 0.019 | 0.502 ± 0.013 |
| AAAUGA | 0.89 ± 0.066 | 1.924 ± 0.0069 | 1.688 ± 0.0025 | 0.709 ± 0.13 |
| AAAGAU | 0.523 ± 0.055 | 1.895 ± 0.016 | 1.68 ± 0.017 | 0.708 ± 0.025 |
| AAAGAG | -0.112 ± 0.064 | 1.8 ± 0.025 | 1.32 ± 0.042 | 0.451 ± 0.045 |
| AAAGAA | 0.0245 ± 0.07 | 1.9 ± 0.028 | 1.715 ± 0.0039 | 0.207 ± 0.017 |
